US20060234308

Tests used:
[1] = tested on: 13-mer peptides of the scan through the myelin basic protein (MBP) from bos taurus
[2] = tested on: T1, Arg-Arg-Ile-Ser-Lys-Asp-Asn-Pro-Asp-Tyr-Gln-Gln-Asp-BAl-Cys-NH2
T1 sequence: RRISKDNPDYQQDXC

[3] = tested on: T2, Cys-BAl-Ala-Lys-Arg-Arg-Arg-Leu-Ser-Ser-Leu-Arg-Ala-NH2
T2 sequence: CXAKRRRLSSLRA

[4] = tested on: T3, Cys-BAl-Gly-Arg-Thr-Gly-Arg-Arg-Asn-Ser-Ile-NH2
T3 sequence: CXGRTGRRNSI

[5] = tested on: T4, Cys-BAl-Lys-Arg-Arg-Glu-Ile-Leu-Ser-Arg-Arg-Pro-Ser-Tyr-Arg-NH2
T4 sequence: CXKRREILSRRPSYR

[6] = tested on: T5, Cys-βAla-Leu-Arg-Arg-Ala-Ser-Leu-Gly-NH2
T5 sequence: CXLRRASLG

[7] = tested on: T6, Dpr(Aoa)-Leu-Arg-Arg-Ala-Ser-Leu-Gly-NH2
T6 sequence: LRRASLG

[8] = tested on: T7, Leu-Arg-Arg-Ala-Ser-Leu-Gly-thioamide
T7 sequence: LRRASLG

[9] = tested on: T8, Cys-BAl-Gln-Lys-Arg-Pro-Ser-Gln-Arg-Ser-Lys-Tyr-Leu-NH2
T8 sequence: CXQKRPSQRSKYL

[10] = tested on: T9, Cys-BAl-Lys-Lys-Arg-Phe-Ser-Phe-Lys-Lys-Ser-Phe-Lys-Leu-NH2
T9 sequence: CXKKRFSFKKSFKL

[11] = tested on: T10, Cys-BAl-Pro-Leu-Ser-Arg-Thr-Leu-Ser-Val-Ala-Ala-Lys-Lys-NH2
T10 sequence: CXPLSRTLSVAAKK

[12] = tested on: T11, Cys-BAl-Pro-Lys-Asp-Pro-Ser-Gln-Arg-Arg-Arg-NH2
T11 sequence: CXPKDPSQRRR

[13] = tested on: other peptides not described as substrates for protein kinase C

| Substance | phosphorylation on MBP peptide scan array (32P, PhosphorImager; higher signal in all three subarrays) [1] | phosphorylation on peptide array (32P, PhosphorImager) [2] | phosphorylation on peptide array (32P, PhosphorImager; higher signal in all three subarrays) [3] | phosphorylation on peptide array (32P, PhosphorImager; higher signal in all three subarrays) [4] | phosphorylation on peptide array (32P, PhosphorImager; higher signal in all three subarrays) [5] | phosphorylation on peptide array (32P, PhosphorImager; higher signal in all three subarrays) [6] | time course of 32P incorporation on modified glass (FIG. 3) [6] | phosphorylation of 960 spots on glass (32P, PhosphorImager; FIG. 7) [7] | phosphorylation of 11760 spots on glass (32P, PhosphorImager; FIG. 6) [8] | phosphorylation on peptide array (32P, PhosphorImager; higher signal in all three subarrays) [9] | phosphorylation on peptide array (32P, PhosphorImager; higher signal in all three subarrays) [10] | phosphorylation on peptide array (32P, PhosphorImager; higher signal in all three subarrays) [11] | phosphorylation on peptide array (32P, PhosphorImager; higher signal in all three subarrays) [12] | phosphorylation on peptide array (32P, PhosphorImager; higher signal in all three subarrays) [13] |
| --- | --- | --- | --- | --- | --- | --- | --- | --- | --- | --- | --- | --- | --- | --- |
| Protein kinase A | most of the peptides on the modified glass surface are recognised and phosphorylated by protein kinase A which was also found in the experiment carried out in solution | The peptide 83 is probably not phosphorylated because of the excessive N-terminal localisation of the substrate motif | with one exception, all the peptides on the modified glass surface are recognised and phosphorylated by protein kinase A which carries two arginine residues in position -2 and -3 (N-terminal) to the serine | with one exception, all the peptides on the modified glass surface are recognised and phosphorylated by protein kinase A which carries two arginine residues in position -2 and -3 (N-terminal) to the serine | with one exception, all the peptides on the modified glass surface are recognised and phosphorylated by protein kinase A which carries two arginine residues in position -2 and -3 (N-terminal) to the serine | with one exception, all the peptides on the modified glass surface are recognised and phosphorylated by protein kinase A which carries two arginine residues in position -2 and -3 (N-terminal) to the serine | a clear time dependence can be identified for the kinase-mediated incorporation of radioactivity into the substrate amino acid sequence | the linking of the immobilised kinase substrate is tolerated by the protein kinase A | the linking of the immobilised kinase substrate is tolerated by the protein kinase A |  |  |  |  |  |
| Protein kinase C |  |  | the peptides known as protein kinase C substrates (substrate peptides Nos. 3, 23, 27, 41, 43) ... are recognised and phosphorylated by this kinase on the modified glass surface |  |  |  |  |  |  | the peptides known as protein kinase C substrates (substrate peptides Nos. 3, 23, 27, 41, 43) ... are recognised and phosphorylated by this kinase on the modified glass surface | the peptides known as protein kinase C substrates (substrate peptides Nos. 3, 23, 27, 41, 43) ... are recognised and phosphorylated by this kinase on the modified glass surface | the peptides known as protein kinase C substrates (substrate peptides Nos. 3, 23, 27, 41, 43) ... are recognised and phosphorylated by this kinase on the modified glass surface | the peptides known as protein kinase C substrates (substrate peptides Nos. 3, 23, 27, 41, 43) ... are recognised and phosphorylated by this kinase on the modified glass surface | other peptides not described as substrates for protein kinase C are recognised and phosphorylated by this kinase on the modified glass surface |
